Test results: the NTF2 design screens of Basanta et al. (2020)

Assay: protease stability score; higher = more stable; yeast display proteolysis, trypsin and chymotrypsin;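 note: log10 excess protease needed over predicted unfolded state with 0 meaning unfolded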
“DHEAEKRIKKWVDAIHTGDEEQLKRLADPNVKVNVGNYSVRGRENLADMVSRMRDEIRLTYRDVKMDVTGDHARMDADVERDHNGRPERFELKANFRWRNGKITEIDAHWHQ” showed a protease stability score of 1.42.
In the case of “DHEAEKRWTKLQEAIKYNNPQEAKHQMDPNARVRVGDKEFHGMDDFAKYQLDHQRKIEVDRKVKKVDVKNGSVKVVQDVENNNNGTPSRHVMDLRVEVHNGHIRNVRAETDK”, the protease stability score is reported as -0.295.
“DHEAKDVFEELLRRMKSGDEDEMKKLVDKNVRYTVGDKTLHGQEEIARHWYEQVKDMRIDIKVKDIKVHNGRVDVKFTFRHEHNGNPDSDKRRVNVEARNGKMQAVDDQKDS” gave a protease stability score of 0.148.
Sequence “DHEAKEIAEKIQRALTSNDPDHLNRQLDPNVRLQIGDKEVEGRQEAHNWLQKVVDEQEISINISDINVNGNHIRIHAVVENQVNGRPFHYEVVIIIIIHNGRVRSQRYQLDEDQDRRIKQ” has a protease stability score of 0.047.
For “DHEALKVLHKFMEALNTGDPDQLNKNIDPNARFVVGDKTINGREQFREDQRRLKEQIRVYATIRTIRVEGDHANLTVEYEQDHNGKPDSNEVTVTAKLKNGKIQEVREDRKQ”, the protease stability score was -0.18.
Work on “DHEANQIAREFVKAIRTNNPTRASQNMDPNVRVTVGDHVFHGREEVKTWIHRLNKEARIDIHINTIESQGDNAKVVFKYRVEVDGRPDSRNVIVDVHAHNGKMKEVVYRVDEDEQHELKK” yielded a protease stability score of 0.368.
Sequence “DHEAQENAKHFIDALHTNDPRQVVEMIDPNARVNVGDKQLRGDSQVRKWWRRQNEEIRMHVKVDDIKVKGNNAVAKFKMEITHDGTPNDNHAEMTVTFHNGRATDLKVDEDK” has a protease stability score of 0.017.
“DHEAQKALRDVIEAIRENNPDEVKKQLDKNATVRVGDKRLHGTEEQRREVQKKLDEIRIRYQDIKMETSGDTVRASIQFVENHNGEPQRDRVTASMSADNGRVKHFVVTETQ” gave a protease stability score of -0.041.
For “DHEAREIVEEYLKAIERNNPKKAQELVDPNVHFHYGDKRLDGREDLNEKIHRETKHQRVDIKSVSIDVQGDKVDVKVDVVDVHNGQPERYTFEVTYTFKNGQIQNADQKESG”, the protease stability score was 1.02.
Sequence “DHEARKLMKRFFSAINHGDPDQIRKNVDKDVKAQVGDKTVHGREEWVKWMTRRLDEIKMHYDVTTIDVQGDKVHAQAKVRYDVDGRPITDQVTFTARIENGKITSLSLRMDPENQQKIEK” has a protease stability score of 1.15.
With “DHEARKVVKRFWEAWETGDPEELNKQVDPNVHVQIGDTRLKGRDDVVRHLLEERHEMRVDLDSMDVKATNGQVNARATARADVNGQPVTFSMEFRFKVRNGKITHIDWQFSDEDHRKRKG” the protease stability score was 0.81.
For “DHEAVKLMERLIEALNTGDPDQLRRLADKDVRWRYGDKDVHGRESVVTQLKKRLEQSRFKVTDVDIKAQGDNVTADYRVIFEHNGKPDDVTVKVEAKVHNGRIKMMKIQTDK”, the protease stability score was 0.623.
With “DHEDAEKMKDLLTAEQQNDPDKVKEQADPNAQFRIGDQKVHGRNQYARIVKTLMERADVHILRIDNKDHNGQVHVSIDRVIDYNGRPKRDTETATARFHNGRLKELHIQFDPKKYQELKK” the protease stability score was 0.027.
With “DHEDKERASQAIEAWNTGDPREFEKQFDPNARVHVGDRHIHGREQFEDEMKRHKDESRYEISLRNVTVDNGRIKLDVVLSVDENGRPETQHLKIDLELHNGRVVSMQFNHKK” the protease stability score was -0.209.
“DHEDLVKRFIETMKEIYHTGNFRELANLADEDVQIHVGDKTVTGREHLRKEQETTERHADHATMRVDEVEVDGDKARVVFTVTIQVNGEKRSDRLVVEFRVHNGQLRIKSMRQQ” showed a protease stability score of 1.05.
Work on “DHEDMEKLAKDLNKAIEQGDPDRMRDMADENVDAKIGDKVFHGDENVRKMIKSIRDHADHLRVKDWRVKGEKIVIDVHVNHNGKSAKLDLKAQAHNGTFTTLKIDPQFQRSMES” yielded a protease stability score of -0.234.
Sequence “DHEDRAKDMLRRYEEALKSGNPDEARKLADEDVNFNIGDKRYRGRDDLATLVKQIRDSADHISITLETFTVQGNTITMDVSVVVDVNGKHISRRYNIIAQVDNGTLKLKSVQEH” has a protease stability score of -0.015.
In the case of “DHEDRELAKEWEKALHSGDRDQVHELMDPNASVRIGDKVFTGREEVSKHLKKIKDEMRIHIHSVHLEVQNGEVDNKNDLVADVNGVPVRVTVVVRITAQNGKMKELDMRFDPRQKEQMDR”, the protease stability score is reported as 0.093.
For “DHEEKAKKFFDDLLRAVKHNDETQLERLFDKNVRFNVGEHNFRGREEFVKMVRTMVEQVDHVTATIVSIETNGDKVNLVAQWDMSHNGNSKRIRVLVVLDDNNGRVVAREMSEK”, the protease stability score was 2.2.
Work on “DHEELEVVKEWFDAIQKGDPKTIQELADKDAEFQIGDKTVRGREHLVETVERRKKHMEFQIRIDRMDVHGDKAVIDVTMSNKHNGQPSQDRYNVRVELHNGKIQNVDQSKRS” yielded a protease stability score of -0.033.
